Experimental data published in patent US20240295570A1, “METHOD FOR IDENTIFYING CANDIDATE THERAPEUTICS FOR ALZHEIMER'S DISEASE” (UNIVERSITY OF SOUTH FLORIDA, priority 2023, published 2024).
Each block holds one molecule with its values, some of them ahead of it.

Experiments:
BIN1 SH3 domain = biological target: T1, BIN1 SH3 domain (Homo sapiens, UniProt O00499); assay: Surface plasmon resonance (SPR) binding to immobilised BIN1 SH3 domain; settings: triplicate, ligand BIN1 SH3 domain 50 μg/mL, analyte serial dilution 75-0.6 μM, dissociation time 120 seconds, 25° C., running buffer 1×PBS-P+, read-out: dissociation constant (KD)
T1 construct: 6x His with TEV cleavage site (N, cleaved yes); made in house; host or cells: E. coli BL21 (DE3), pET28a(+)
T1 sequence (O00499 513-593): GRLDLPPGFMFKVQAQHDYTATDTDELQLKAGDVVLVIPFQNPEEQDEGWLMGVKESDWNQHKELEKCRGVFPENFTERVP
Procedure: (§1) Next, the inventors determined the dissociation constant (KD) for the peptide and full-length 0N4R WT Tau by surface plasmon resonance (SPR). The experiment was run in triplicate with BIN1 SH3 domain 50 μg/mL as the ligand, and FL 0N4R WT Tau in serial dilution from 75-0.6 μM as the analyte. Flow rate—30 μL/minute, contact time—30 seconds, dissociation time—120 seconds, temperature—25° C., running buffer—1×PBS-P+. A dissociation constant of 1.136 μM was determined.
Then, the dissociation constants for nine compounds identified through the molecular docking analysis were assessed. […] Therefore, compound #5 is a candidate compound for further testing in Alzheimer's disease. Ligand-BIN1 SH3 domain 50 μg/mL. Analyte—compounds 1-2 (serial dilutions from 500-3.12 μM), #4 & 6-9 (250-3.12 μM) and #5 (dilutions from 100-3.12 μM). Flow rate—30 μL/minute, contact time—30 seconds, dissociation time—300 seconds, temperature—25° C., running buffer—1.05×PBS-P+ with 5% DMSO. Solvent correction for 5% DMSO was calculated and mathematically subtracted from each compound analysis.

full-length 0N4R WT Tau [1] = biological target: T2, full-length 0N4R WT Tau (UniProt P10636-6 2-383, limits assumed); assay: SPR, steady-state affinity fit (replicate 2 of 3); BIN1 SH3 domain as immobilised ligand, FL 0N4R WT Tau as analyte 0.6-75 µM, 25 °C, PBS-P+
T2 construct: mature; also called FL 0N4R WT Tau
T2 sequence (P10636 other isoform, or with tags, fused parts or gaps limits assumed): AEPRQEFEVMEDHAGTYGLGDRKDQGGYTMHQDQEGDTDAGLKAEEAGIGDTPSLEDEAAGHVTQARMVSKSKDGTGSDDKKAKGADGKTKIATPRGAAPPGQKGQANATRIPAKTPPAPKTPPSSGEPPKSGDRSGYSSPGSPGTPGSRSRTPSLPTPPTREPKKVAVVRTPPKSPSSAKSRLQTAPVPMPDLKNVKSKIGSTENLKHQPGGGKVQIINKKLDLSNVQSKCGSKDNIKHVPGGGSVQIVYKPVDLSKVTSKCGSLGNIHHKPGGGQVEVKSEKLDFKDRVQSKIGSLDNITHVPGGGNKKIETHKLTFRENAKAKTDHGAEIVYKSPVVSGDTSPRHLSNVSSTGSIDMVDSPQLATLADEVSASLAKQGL
Procedure: as §1, with “buffer—1×PBS-P+.” for “buffer—1×PBS-P+. A dissociation constant of 1.136 μM was determined.”

full-length 0N4R WT Tau [2] = biological target: T2, full-length 0N4R WT Tau; assay: SPR, steady-state affinity fit (replicate 1 of 3); BIN1 SH3 domain as immobilised ligand, FL 0N4R WT Tau as analyte 0.6-75 µM, 25 °C, PBS-P+
Procedure: as §1, with “buffer—1×PBS-P+.” for “buffer—1×PBS-P+. A dissociation constant of 1.136 μM was determined.”

full-length 0N4R WT Tau [3] = biological target: T2, full-length 0N4R WT Tau; assay: SPR, run in triplicate; BIN1 SH3 domain (50 µg/mL) as immobilised ligand, FL 0N4R WT Tau in serial dilution from 75-0.6 µM as analyte; 25° C., 1×PBS-P+
Procedure: as §1, with “buffer—1×PBS-P+.” for “buffer—1×PBS-P+. A dissociation constant of 1.136 μM was determined.”

full-length 0N4R WT Tau [4] = biological target: T2, full-length 0N4R WT Tau; assay: SPR, steady-state affinity fit (replicate 3 of 3); BIN1 SH3 domain as immobilised ligand, FL 0N4R WT Tau as analyte 0.6-75 µM, 25 °C, PBS-P+
Procedure: as §1, with “buffer—1×PBS-P+.” for “buffer—1×PBS-P+. A dissociation constant of 1.136 μM was determined.”

Kd (BIN1 SH3 domain): 1140 nM
Molecule: FL 0N4R WT Tau: full-length 0N4R wild-type Tau protein used as analyte in SPR

Kd (full-length 0N4R WT Tau [1]): 1300 nM
Kd (full-length 0N4R WT Tau [2]): 1030 nM
Kd (full-length 0N4R WT Tau [3]): 1140 nM
Kd (full-length 0N4R WT Tau [4]): 1080 nM
B1: human BIN1 SH3 domain (untagged) (other)
chain: T1 sequence (O00499 513-593)
notes: also called native BIN1 SH3 domain; the peptide
